Columns and labels:
Test in all cases: holdup assay
Parameters in all cases: key: below the threshold = too weak to quantify, mostly under pKd 3.1 to 4
[1] = biological target: ARHGEF12, Q9NZN5-2
[2] = biological target: CASK, O14936
[3] = biological target: T1, DFNB31_1, Q9P202
T1 sequence (Q9P202 135-233, limits assumed, looked up): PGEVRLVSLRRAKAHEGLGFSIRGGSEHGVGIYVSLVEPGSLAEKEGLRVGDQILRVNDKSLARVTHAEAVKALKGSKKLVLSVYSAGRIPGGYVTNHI

[4] = biological target: T2, DLG3_3, Q92796
T2 sequence (Q92796 374-475, limits assumed, looked up): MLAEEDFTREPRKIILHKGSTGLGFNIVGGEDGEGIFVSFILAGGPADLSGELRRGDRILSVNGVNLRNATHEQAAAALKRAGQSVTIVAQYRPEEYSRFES

[5] = biological target: FRMPD4, Q14CM0
[6] = biological target: GRASP, Q7Z6J2
[7] = biological target: GRID2IP_2, A4D2P6
[8] = biological target: T3, GRIP1_4, Q9Y3R0
T3 sequence (Q9Y3R0 467-571, limits assumed, looked up): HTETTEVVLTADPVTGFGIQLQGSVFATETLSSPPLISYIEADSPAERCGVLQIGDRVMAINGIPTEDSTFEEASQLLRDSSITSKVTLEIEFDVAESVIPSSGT

[9] = biological target: IL16_1, Q14005
[10] = biological target: Inadl_9, Q8NI35
[11] = biological target: LDB3, O75112
[12] = biological target: LNX1_1, Q8TBB1
[13] = biological target: T4, LNX2_2, Q8N448
T4 sequence (Q8N448 334-432, limits assumed, looked up): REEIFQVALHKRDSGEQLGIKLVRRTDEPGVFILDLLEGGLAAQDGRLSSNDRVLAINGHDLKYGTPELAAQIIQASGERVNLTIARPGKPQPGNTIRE

[14] = biological target: MAGI1_1, Q96QZ7
[15] = biological target: MAGI2_6, Q86UL8
[16] = biological target: T5, MPP2, Q14168
T5 sequence (Q14168 180-250, limits assumed, looked up): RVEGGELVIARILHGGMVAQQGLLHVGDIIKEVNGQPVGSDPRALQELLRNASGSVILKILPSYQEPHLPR

[17] = biological target: NHERF2_2, Q15599
[18] = biological target: NHERF4_1, Q86UT5-2
[19] = biological target: NHERF4_2, Q86UT5
[20] = biological target: T6, PARD3B_1, Q8TEW8
T6 sequence (Q8TEW8 196-299, limits assumed, looked up): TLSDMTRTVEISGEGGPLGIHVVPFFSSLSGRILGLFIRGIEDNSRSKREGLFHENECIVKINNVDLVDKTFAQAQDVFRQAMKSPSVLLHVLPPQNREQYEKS

[21] = biological target: T7, PDZD7_3, Q9H5P4
T7 sequence (Q9H5P4 857-944, limits assumed, looked up): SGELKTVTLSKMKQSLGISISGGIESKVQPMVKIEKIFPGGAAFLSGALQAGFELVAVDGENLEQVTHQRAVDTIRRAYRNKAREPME

[22] = biological target: T8, PTPN13_1, Q12923
T8 sequence (Q12923 1088-1188, limits assumed, looked up): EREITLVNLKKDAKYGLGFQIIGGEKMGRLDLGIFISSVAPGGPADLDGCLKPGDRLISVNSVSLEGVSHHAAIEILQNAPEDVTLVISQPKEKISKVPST

[23] = biological target: SCRIB_3, Q14160
[24] = biological target: T9, SHANK1, Q9Y566
T9 sequence (Q9Y566 658-767, limits assumed, looked up): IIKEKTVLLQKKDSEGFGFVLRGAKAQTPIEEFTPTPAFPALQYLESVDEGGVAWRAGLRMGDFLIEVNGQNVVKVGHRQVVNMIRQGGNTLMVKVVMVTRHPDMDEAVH

[25] = biological target: T10, SIPA1L2, Q9P2F8
T10 sequence (Q9P2F8 945-1036, limits assumed, looked up): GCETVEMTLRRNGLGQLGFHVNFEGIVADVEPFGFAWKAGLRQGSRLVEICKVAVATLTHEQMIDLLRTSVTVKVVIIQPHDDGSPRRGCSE

[26] = biological target: T11, SNTG2, Q9NY99
T11 sequence (Q9NY99 68-166, limits assumed, looked up): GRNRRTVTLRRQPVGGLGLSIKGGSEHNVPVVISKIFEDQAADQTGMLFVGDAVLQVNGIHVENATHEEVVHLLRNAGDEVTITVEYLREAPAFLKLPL

[27] = modified: phospho on T at position -2 from the C-terminal residue
[28] = plain residues with an end cap or a label only (N-terminal biotin on a linker: ado-ado)

MAGI2_6, Q86UL8, sequence (Q86UL8 1141-1229): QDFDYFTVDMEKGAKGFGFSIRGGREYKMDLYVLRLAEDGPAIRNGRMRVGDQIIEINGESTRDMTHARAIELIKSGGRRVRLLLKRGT
ARHGEF12, Q9NZN5-2, sequence (Q9NZN5 other isoform, or with tags, fused parts or gaps): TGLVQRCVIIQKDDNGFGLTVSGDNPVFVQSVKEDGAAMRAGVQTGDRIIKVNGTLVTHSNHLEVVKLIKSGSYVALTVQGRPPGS
IL16_1, Q14005, sequence (Q14005 210-306): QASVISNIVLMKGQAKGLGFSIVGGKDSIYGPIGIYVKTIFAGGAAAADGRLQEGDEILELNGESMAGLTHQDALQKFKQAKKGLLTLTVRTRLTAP
NHERF4_1, Q86UT5-2, sequence (Q86UT5 other isoform, or with tags, fused parts or gaps): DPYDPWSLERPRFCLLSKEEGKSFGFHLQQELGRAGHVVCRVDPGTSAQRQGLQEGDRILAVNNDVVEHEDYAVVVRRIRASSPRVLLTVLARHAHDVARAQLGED
LNX1_1, Q8TBB1, sequence (Q8TBB1 261-371): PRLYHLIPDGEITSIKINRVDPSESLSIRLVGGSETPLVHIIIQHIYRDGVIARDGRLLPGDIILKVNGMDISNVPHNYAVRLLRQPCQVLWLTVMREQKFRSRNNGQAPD
MAGI1_1, Q96QZ7, sequence (Q96QZ7 1-106): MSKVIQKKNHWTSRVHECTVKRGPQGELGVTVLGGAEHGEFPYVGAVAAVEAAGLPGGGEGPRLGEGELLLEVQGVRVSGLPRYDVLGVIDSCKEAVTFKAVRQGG
NHERF2_2, Q15599, sequence (Q15599 142-238): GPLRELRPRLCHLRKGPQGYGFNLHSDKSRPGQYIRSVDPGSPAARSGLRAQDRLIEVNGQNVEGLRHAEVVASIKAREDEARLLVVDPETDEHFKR
NHERF4_2, Q86UT5, sequence (Q86UT5 220-308): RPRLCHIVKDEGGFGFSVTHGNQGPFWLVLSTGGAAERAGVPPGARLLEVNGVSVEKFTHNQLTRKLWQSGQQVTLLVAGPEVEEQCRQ
GRASP, Q7Z6J2, sequence (Q7Z6J2 96-193): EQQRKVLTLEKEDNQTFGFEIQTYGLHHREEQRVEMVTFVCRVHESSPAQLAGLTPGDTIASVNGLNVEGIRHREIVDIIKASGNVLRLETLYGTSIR
CASK, O14936, sequence (O14936 487-570): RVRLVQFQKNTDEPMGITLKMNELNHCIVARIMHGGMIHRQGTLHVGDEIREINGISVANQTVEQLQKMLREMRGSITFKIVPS
Inadl_9, Q8NI35, sequence (Q8NI35 1530-1615): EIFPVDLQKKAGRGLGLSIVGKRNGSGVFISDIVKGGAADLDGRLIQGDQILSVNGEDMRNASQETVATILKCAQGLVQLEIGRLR
FRMPD4, Q14CM0, sequence (Q14CM0 67-160): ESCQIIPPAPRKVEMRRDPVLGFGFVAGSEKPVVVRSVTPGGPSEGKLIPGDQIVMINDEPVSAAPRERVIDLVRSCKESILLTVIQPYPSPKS
LDB3, O75112, sequence (O75112 1-94): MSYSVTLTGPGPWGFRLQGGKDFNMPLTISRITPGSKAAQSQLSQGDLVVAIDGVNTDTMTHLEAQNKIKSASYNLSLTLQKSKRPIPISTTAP
GRID2IP_2, A4D2P6, sequence (A4D2P6 272-370): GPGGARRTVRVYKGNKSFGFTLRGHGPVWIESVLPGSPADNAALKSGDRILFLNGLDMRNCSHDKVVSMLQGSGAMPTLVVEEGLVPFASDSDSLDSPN
SCRIB_3, Q14160, sequence (Q14160 999-1103): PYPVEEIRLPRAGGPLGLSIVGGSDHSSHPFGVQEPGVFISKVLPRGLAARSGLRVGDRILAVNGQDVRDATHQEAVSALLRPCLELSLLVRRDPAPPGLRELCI

## SKPTRRETEV [HPV35-E6_-2P, P27228]
[1]; [27]
  pKd: below the threshold
[2]; [27]
  pKd: below the threshold
[3]; [27]
  pKd: below the threshold
[4]; [27]
  pKd: below the threshold
[5]; [27]
  pKd: below the threshold
[6]; [27]
  pKd: below the threshold
[7]; [27]
  pKd: below the threshold
[8]; [27]
  pKd: below the threshold
[9]; [27]
  pKd: below the threshold
[10]; [27]
  pKd: below the threshold
[11]; [27]
  pKd: below the threshold
[12]; [27]
  pKd: below the threshold
[13]; [27]
  pKd: below the threshold
[14]; [27]
  pKd: below the threshold
[15]; [27]
  pKd: below the threshold
[16]; [27]
  pKd: below the threshold
[17]; [27]
  pKd: below the threshold
[18]; [27]
  pKd: 3.6
[19]; [27]
  pKd: below the threshold
[20]; [27]
  pKd: below the threshold
[21]; [27]
  pKd: 3.61
[22]; [27]
  pKd: below the threshold
[23]; [27]
  pKd: below the threshold
[24]; [27]
  pKd: below the threshold
[25]; [27]
  pKd: below the threshold
[26]; [27]
  pKd: below the threshold

## RRRESYSTTV [EVI5, O60447]
[1]; [28]
  pKd: 4.74
[2]; [28]
  pKd: below the threshold
[3]; [28]
  pKd: 3.52
[4]; [28]
  pKd: 4.28
[5]; [28]
  pKd: 3.79
[6]; [28]
  pKd: 4.55
[7]; [28]
  pKd: 4.34
[8]; [28]
  pKd: below the threshold
[9]; [28]
  pKd: below the threshold
[10]; [28]
  pKd: 3.88
[11]; [28]
  pKd: below the threshold
[12]; [28]
  pKd: 4.47
[13]; [28]
  pKd: 5.2
[14]; [28]
  pKd: below the threshold
[15]; [28]
  pKd: 3.77
[16]; [28]
  pKd: below the threshold
[17]; [28]
  pKd: 4.21
[18]; [28]
  pKd: below the threshold
[19]; [28]
  pKd: below the threshold
[20]; [28]
  pKd: below the threshold
[21]; [28]
  pKd: 4.61
[22]; [28]
  pKd: below the threshold
[23]; [28]
  pKd: 4.48
[24]; [28]
  pKd: 4.36
[25]; [28]
  pKd: 3.47
[26]; [28]
  pKd: 4.13

## LRSPRTPSEV [OR10G3, Q8NGC4]
[1]; [28]
  pKd: 3.65
[2]; [28]
  pKd: 3.61
[3]; [28]
  pKd: below the threshold
[4]; [28]
  pKd: below the threshold
[5]; [28]
  pKd: below the threshold
[6]; [28]
  pKd: below the threshold
[7]; [28]
  pKd: below the threshold
[8]; [28]
  pKd: below the threshold
[9]; [28]
  pKd: below the threshold
[10]; [28]
  pKd: 4.01
[11]; [28]
  pKd: below the threshold
[12]; [28]
  pKd: below the threshold
[13]; [28]
  pKd: below the threshold
[14]; [28]
  pKd: below the threshold
[15]; [28]
  pKd: below the threshold
[16]; [28]
  pKd: below the threshold
[17]; [28]
  pKd: below the threshold
[18]; [28]
  pKd: 3.63
[19]; [28]
  pKd: below the threshold
[20]; [28]
  pKd: below the threshold
[21]; [28]
  pKd: below the threshold
[22]; [28]
  pKd: 3.71
[23]; [28]
  pKd: 3.61
[24]; [28]
  pKd: below the threshold
[25]; [28]
  pKd: below the threshold
[26]; [28]
  pKd: below the threshold

Source: article PMC9482650, “Quantitative fragmentomics allow affinity mapping of interactomes” (Nature Communications, 2022)
